To fix the notation:
B1: Epsin-1 (Saccharomyces cerevisiae), Q12518 (parent)
chain: MSKQFVRSAKNLVKGYSSTQVLVRNATSNDNHQVSKDSLIELAEKSYDSADFFEIMDMLDKRLNDKGKYWRHIAKALTVIDYLIRFGSENCVLWCRENLYIIKTLKEFRHEDDEGIDQGQIVRVKAKELTALLSDDERLNEERNMNIKGRNRKGRRRRGTGRSDENDDDLQRAISASRLTAEEDERRRKQDEDYETALQLSKEEEELKRLQDLQRMQQQQGQQQLQQPMYYDIFGNPITPEEYAQFQLQQQQQQQQQQLQQQPMYYDVFGNPITPEELAQFQQQQQLQEQQYLASMQQQQQAMSNNPFAKSEQSSSSPKRNQLVAASSPQQLQQQKQQEPLIQNRTGNQSMTDKYSKLNELLATGTGIDTFGNVGEARIPAQHTKTGTFINSQGTGYRQVSDDPNHNPFLNSQYTGLPSTSVVPTQTGYGFGNQSQQQSQNNGSNNRGYTLIDL
partner: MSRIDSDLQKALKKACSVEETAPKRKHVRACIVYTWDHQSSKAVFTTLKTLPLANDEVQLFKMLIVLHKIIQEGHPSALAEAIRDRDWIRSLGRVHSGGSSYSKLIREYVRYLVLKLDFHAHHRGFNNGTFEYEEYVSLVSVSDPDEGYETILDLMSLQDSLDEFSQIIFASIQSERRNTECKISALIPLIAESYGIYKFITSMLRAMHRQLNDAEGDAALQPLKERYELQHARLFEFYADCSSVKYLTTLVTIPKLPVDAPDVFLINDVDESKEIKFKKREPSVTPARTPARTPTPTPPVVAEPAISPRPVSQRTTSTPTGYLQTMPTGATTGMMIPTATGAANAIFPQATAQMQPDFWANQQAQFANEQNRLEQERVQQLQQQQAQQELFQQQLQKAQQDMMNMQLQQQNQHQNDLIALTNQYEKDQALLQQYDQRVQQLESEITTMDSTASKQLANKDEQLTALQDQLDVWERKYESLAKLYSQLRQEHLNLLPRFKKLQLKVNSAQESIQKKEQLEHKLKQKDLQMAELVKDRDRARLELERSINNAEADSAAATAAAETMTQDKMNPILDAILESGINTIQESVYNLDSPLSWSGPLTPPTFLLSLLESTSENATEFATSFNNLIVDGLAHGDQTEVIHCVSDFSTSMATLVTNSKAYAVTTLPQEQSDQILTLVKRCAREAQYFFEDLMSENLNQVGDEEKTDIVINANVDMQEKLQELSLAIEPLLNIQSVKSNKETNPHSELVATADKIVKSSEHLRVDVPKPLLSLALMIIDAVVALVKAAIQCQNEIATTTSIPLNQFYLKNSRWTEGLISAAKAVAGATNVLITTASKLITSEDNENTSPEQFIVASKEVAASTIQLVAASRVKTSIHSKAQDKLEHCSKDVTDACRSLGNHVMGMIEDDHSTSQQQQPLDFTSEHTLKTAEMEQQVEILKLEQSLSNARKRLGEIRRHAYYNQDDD

In the assay the parent is B1. Conditions: with sla2_yeast SLA2, P33338.
T104A: the “effect of a mutation on the interaction” value is reported as “disrupting interaction strength”.

The values above are taken from IntAct's records for PubMed 22927393.
